Laboratory results taken from PMC1361615 (Nucleic Acids Research, 2006).

Biological target: the molecule itself
Assay: SEC

B1: His-tagged RsrI N6-adenine DNA methyltransferase (M.RsrI), wild type (enzyme, UniProt P14751 1-319, looked up)
chain: MANRSHHNAGHRAMNALRKSGQKHSSESQLGSSEIGTTRHVYDVCDCLDTLAKLPDDSVQLIICDPPYNIMLADWDDHMDYIGWAKRWLAEAERVLSPTGSIAIFGGLQYQGEAGSGDLISIISHMRQNSKMLLANLIIWNYPNGMSAQRFFANRHEEIAWFAKTKKYFFDLDAVREPYDEETKAAYMKDKRLNPESVEKGRNPTNVWRMSRLNGNSLERVGHPTQKPAAVIERLVRALSHPGSTVLDFFAGSGVTARVAIQEGRNSICTDAAPVFKEYYQKQLTFLQDDGLIDKARSYEIVEGAANFGAALQRGDVAS
- stoichiometry N: 2
